Measured values as given in article PMC3378519, “Contribution of DEAF1 Structural Domains to the Interaction with the Breast Cancer Oncogene LMO4” (PLoS ONE, 2012).

B1: GB1-tagged DEAF1_(454–487), isolated coiled coil, recombinant (domain or fragment, mouse, UniProt Q9Z1T5-1 454-487, looked up)
chain: WLYLEEMVNSLLNTAQQLKTLFEQAKQASSCREA
notes: DEAF1, mouse, NM_016874; source: E. coli Rosetta 2, purified (DEAE sepharose, Ni-NTA); not shown: His6, N-terminal, kept; GB1 (Gβ-1 domain of streptococcal protein G), N-terminal, kept
B2: DEAF1_(404–479), recombinant protein for SEC-MALLS (domain or fragment, mouse, UniProt Q9Z1T5-1 404-479, looked up)
chain: IAPFPEAALPTSHPKIVLTSLPALAVPPSTPTKAVSPTVVSGLEMSEHRSWLYLEEMVNSLLNTAQQLKTLFEQAK
notes: DEAF1, mouse, NM_016874; source: recombinant
B3: MBP-fused DEAF1_(335–485), recombinant (domain or fragment, mouse, UniProt Q9Z1T5-1 335-485, looked up)
chain: TVTPSGQITTSGALTFDRASTVEATAVISESPAQGDVFAGATVQEAGVQPPCRVGHPEPHYPGYQDSCQIAPFPEAALPTSHPKIVLTSLPALAVPPSTPTKAVSPTVVSGLEMSEHRSWLYLEEMVNSLLNTAQQLKTLFEQAKQASSCR
notes: DEAF1, mouse, NM_016874; pMALC2 construct; not shown: MBP, N-terminal, kept
B4: MBP-fused full length DEAF1, recombinant (natural protein, mouse, UniProt Q9Z1T5-1 1-566, looked up)
chain: MEDSDSAAKQLGLAEAAAVAAAAAVAAAAAAAAESEAEEPVLSRDEDSEEDADSEAERETRRVTAVAVMAAESGHMDMGTEALPSPDEAAAAAAAFAEVTTVTVANVGSSADNVFTTSVANAASISGHVLSGRTALQIGDSLNTEKATLIVVHTDGSIVETTGLKGPAAPLTPGPQSPPTPLAPGQEKGGTKYNWDPSVYDSELPVRCRNISGTLYKSRLGSGGRGRCIKQGENWYSPTEFEAMAGRASSKDWKRSIRYAGRPLQCLIQDGILNPHAASCTCAACCDDMTLSGPVRLFVPYKRRKKENELPTTPVKKDSPKNITLLPATAATTFTVTPSGQITTSGALTFDRASTVEATAVISESPAQGDVFAGATVQEAGVQPPCRVGHPEPHYPGYQDSCQIAPFPEAALPTSHPKIVLTSLPALAVPPSTPTKAVSPTVVSGLEMSEHRSWLYLEEMVNSLLNTAQQLKTLFEQAKQASSCREAAVTQARMQVDTERKEQSCVNCGREAMSECTGCHKVNYCSTFCQRKDWKDHQHVCGQSASVTVQADDVHVEESVIEKVAV
notes: DEAF1, mouse, NM_016874, full length; pMALC2 construct; about 10 subunits by SEC-MALLS, mixture of species; not shown: MBP, N-terminal, kept

Biological target: the molecule itself
Experiment: SEC-MALS; SEC-MALLS; about 200 µg of protein on a Superose 12 column with in-line MALLS detector; weight-averaged molecular weight in solution

Row | Protein | stoichiometry N | binding result
1 | B1 | 4 subunits | 
2 | B2 |  | binds
3 | B3 | 4 subunits | 
4 | B4 | ~10 subunits | 
